Our source for the stoichiometry N values is paper PMC11946224.

The term stoichiometry N denotes the number of molecules, sites or subunits per partner or assembly.

Test [1] concerns the target recombinant cylindracin (C-terminal cysteine-rich domain of cylindracin) (Cyclocybe cylindracea). Kind of test: cross-linking; rCYL raised from 0.25 mg/mL (39 uM) to 2.0 mg/mL (312 uM) with BS(PEG)9 at 500 uM; SDS-PAGE, Coomassie staining.
For test [2] the target is unchanged. The test is described as above. The source holds these as a separate data set.
For test [3] the target is unchanged. Kind of test: cross-linking; rCYL at 0.25 mg/mL (39 uM) with 0.005-5 mM BS(PEG)9 in 20 mM sodium phosphate pH 7.2, 150 mM NaCl, 25 C, 30 min; SDS-PAGE, Coomassie staining.

As to “recombinant cylindracin (C-terminal cysteine-rich domain of cylindracin) (domain or fragment)”, the stoichiometry N in test [1] worked out at 4; in test [2], 2; in test [3] it was 2.
